Test results published in paper PMC7382501 (Nature Communications, 2020).

Target: the molecule itself
Assay: crystal structure

B1: FasRΔ33, truncated FasR lacking the first 33 amino acids (domain or fragment)
chain: RLPRDERRGQLLVVASDVFVDRGYHAAGMDEIADRAGVSKPVLYQHFSSKLELYLAVLHRHVENLVSGVHQALSTTTDNRQRLHVAVQAFFDFIEHDSQGYRLIFENDFVTEPEVAAQVRVATESCIDAVFALISADSGLDPHRARMIAVGLVGMSVDCARYWLDADKPISKSDAVEGTVQFAWGGLSHVPLTRS
stoichiometry N: 2
